How the values were obtained:
Assay in all cases: cell-based or functional assay
[1] = target: HIV-1 Env of pseudovirus 6535.3 (HIV-1)
[2] = target: HIV-1 Env of pseudovirus REJO4541.67 (HIV-1)
[3] = target: HIV-1 Env of pseudovirus WITO4160.33 (HIV-1)
[4] = target: HIV-1 Env of pseudovirus Ce2060_G9 (HIV-1)
[5] = target: HIV-1 Env of pseudovirus CAAN5342.A2 (HIV-1)
[6] = target: HIV-1 Env of pseudovirus 6240_08_TA5_4622 (HIV-1)
[7] = target: HIV-1 Env of pseudovirus CNE52 (HIV-1)
[8] = target: HIV-1 Env of pseudovirus Ce703010054_2A2 (HIV-1)
[9] = target: HIV-1 Env of pseudovirus Ce0393_C3 (HIV-1)
[10] = target: HIV-1 Env of pseudovirus AC10.0.29 (HIV-1)
[11] = target: HIV-1 Env of pseudovirus Q259.d2.17 (HIV-1)
[12] = target: HIV-1 Env of pseudovirus HIV-16845-2.22 (HIV-1)
[13] = target: HIV-1 Env of pseudovirus HIV-001428-2.42 (HIV-1)
[14] = target: HIV-1 Env of pseudovirus 7030102001E5(Rev-) (HIV-1)
[15] = target: HIV-1 Env of pseudovirus CNE17 (HIV-1)
[16] = target: HIV-1 Env of pseudovirus WEAU_d15_410_787 (HIV-1)
[17] = target: HIV-1 Env of pseudovirus CNE21 (HIV-1)
[18] = target: HIV-1 Env of pseudovirus TRO.11 (HIV-1)
[19] = target: HIV-1 Env of pseudovirus Ce1172_H1 (HIV-1)
[20] = target: HIV-1 Env of pseudovirus Ce1176_A3 (HIV-1)
[21] = target: HIV-1 Env of pseudovirus ZM249M.PL1 (HIV-1)
[22] = target: HIV-1 Env of pseudovirus RHPA4259.7 (HIV-1)
[23] = target: HIV-1 Env of pseudovirus ZM247v1(Rev-) (HIV-1)
[24] = target: HIV-1 Env of pseudovirus Q461.e2 (HIV-1)
[25] = target: HIV-1 Env of pseudovirus MS208.A1 (HIV-1)
[26] = target: HIV-1 Env of pseudovirus CAP210.2.00.E8 (HIV-1)

Substance: N49P19 (antibody)
- IC50 [1]: 9.09 µg/mL
- IC80 [1]: 28.3 µg/mL
- MPI [1]: 95
- IC50 [2]: 0.169 µg/mL
- IC80 [2]: 0.859 µg/mL
- MPI [2]: 100
- IC50 [3]: 0.263 µg/mL
- IC80 [3]: 1.29 µg/mL
- MPI [3]: 100
- IC50 [4]: 1.06 µg/mL
- IC80 [4]: 5.62 µg/mL
- MPI [4]: 98
- IC50 [5]: 1.24 µg/mL
- IC80 [5]: 4.4 µg/mL
- MPI [5]: 100
- IC50 [6]: 2.1 µg/mL
- IC80 [6]: 7.52 µg/mL
- MPI [6]: 100
- IC50 [7]: 0.175 µg/mL
- IC80 [7]: 0.491 µg/mL
- MPI [7]: 100
- IC50 [8]: > 50 µg/mL
- IC80 [8]: > 50 µg/mL
- MPI [8]: 0
- IC50 [9]: > 50 µg/mL
- IC80 [9]: > 50 µg/mL
- MPI [9]: 31
- IC50 [10]: > 50 µg/mL
- IC80 [10]: > 50 µg/mL
- MPI [10]: 13
- IC50 [11]: > 50 µg/mL
- IC80 [11]: > 50 µg/mL
- MPI [11]: 11
- IC50 [12]: 14.5 µg/mL
- IC80 [12]: > 50 µg/mL
- MPI [12]: 73
- IC50 [13]: > 50 µg/mL
- IC80 [13]: > 50 µg/mL
- MPI [13]: 44
- IC50 [14]: 0.95 µg/mL
- IC80 [14]: 4.7 µg/mL
- MPI [14]: 100
- IC50 [15]: > 50 µg/mL
- IC80 [15]: > 50 µg/mL
- MPI [15]: 30
- IC50 [16]: 0.177 µg/mL
- IC80 [16]: 0.612 µg/mL
- MPI [16]: 100
- IC50 [17]: > 50 µg/mL
- IC80 [17]: > 50 µg/mL
- MPI [17]: 21
- IC50 [18]: 0.394 µg/mL
- IC80 [18]: 1.3 µg/mL
- MPI [18]: 100
- IC50 [19]: > 50 µg/mL
- IC80 [19]: > 50 µg/mL
- MPI [19]: 3
- IC50 [20]: 1.57 µg/mL
- IC80 [20]: 9.84 µg/mL
- MPI [20]: 99
- IC50 [21]: > 50 µg/mL
- IC80 [21]: > 50 µg/mL
- MPI [21]: 33
- IC50 [22]: > 50 µg/mL
- IC80 [22]: > 50 µg/mL
- MPI [22]: 42
- IC50 [23]: > 50 µg/mL
- IC80 [23]: > 50 µg/mL
- MPI [23]: 5
- IC50 [24]: 0.774 µg/mL
- IC80 [24]: 4.05 µg/mL
- MPI [24]: 100
- IC50 [25]: 0.501 µg/mL
- IC80 [25]: 1.99 µg/mL
- MPI [25]: 99
- IC50 [26]: > 50 µg/mL
- IC80 [26]: > 50 µg/mL
- MPI [26]: 0

Substance: PG9 (antibody)
- IC50, titer in TZM.bl cells [1]: 0.176 µg/mL
- IC80, titer in TZM.bl cells [1]: 0.627 µg/mL
- IC50, titer in TZM.bl cells [2]: 0.012 µg/mL
- IC80, titer in TZM.bl cells [2]: 0.163 µg/mL
- IC50, titer in TZM.bl cells [3]: 0.01 µg/mL
- IC80, titer in TZM.bl cells [3]: 0.037 µg/mL
- IC50, titer in TZM.bl cells [4]: 0.045 µg/mL
- IC80, titer in TZM.bl cells [4]: 0.172 µg/mL
- IC50, titer in TZM.bl cells [5]: 4.6 µg/mL
- IC80, titer in TZM.bl cells [5]: 27 µg/mL
- IC50, titer in TZM.bl cells [6]: 1.75 µg/mL
- IC80, titer in TZM.bl cells [6]: 6.33 µg/mL
- IC50, titer in TZM.bl cells [7]: 0.029 µg/mL
- IC80, titer in TZM.bl cells [7]: 0.081 µg/mL
- IC50, titer in TZM.bl cells [8]: 0.022 µg/mL
- IC80, titer in TZM.bl cells [8]: 0.103 µg/mL
- IC50, titer in TZM.bl cells [9]: 0.02 µg/mL
- IC80, titer in TZM.bl cells [9]: 0.055 µg/mL
- IC50, titer in TZM.bl cells [10]: 0.117 µg/mL
- IC80, titer in TZM.bl cells [10]: 0.845 µg/mL
- IC50, titer in TZM.bl cells [11]: 0.029 µg/mL
- IC80, titer in TZM.bl cells [11]: 1.38 µg/mL
- IC50, titer in TZM.bl cells [12]: 4.4 µg/mL
- IC80, titer in TZM.bl cells [12]: > 50 µg/mL
- IC50, titer in TZM.bl cells [13]: 0.101 µg/mL
- IC80, titer in TZM.bl cells [13]: 0.25 µg/mL
- IC50, titer in TZM.bl cells [14]: > 50 µg/mL
- IC80, titer in TZM.bl cells [14]: > 50 µg/mL
- IC50, titer in TZM.bl cells [15]: 0.21 µg/mL
- IC80, titer in TZM.bl cells [15]: 0.484 µg/mL
- IC50, titer in TZM.bl cells [16]: 4.08 µg/mL
- IC80, titer in TZM.bl cells [16]: > 50 µg/mL
- IC50, titer in TZM.bl cells [17]: 0.038 µg/mL
- IC80, titer in TZM.bl cells [17]: 0.094 µg/mL
- IC50, titer in TZM.bl cells [18]: 43.2 µg/mL
- IC80, titer in TZM.bl cells [18]: > 50 µg/mL
- IC50, titer in TZM.bl cells [19]: 0.07 µg/mL
- IC80, titer in TZM.bl cells [19]: 0.206 µg/mL
- IC50, titer in TZM.bl cells [20]: 0.014 µg/mL
- IC80, titer in TZM.bl cells [20]: 0.044 µg/mL
- IC50, titer in TZM.bl cells [21]: 0.166 µg/mL
- IC80, titer in TZM.bl cells [21]: 1.41 µg/mL
- IC50, titer in TZM.bl cells [22]: 22.6 µg/mL
- IC80, titer in TZM.bl cells [22]: > 50 µg/mL
- IC50, titer in TZM.bl cells [23]: 0.112 µg/mL
- IC80, titer in TZM.bl cells [23]: 0.323 µg/mL
- IC50, titer in TZM.bl cells [24]: 1.48 µg/mL
- IC80, titer in TZM.bl cells [24]: 8.72 µg/mL
- IC50, titer in TZM.bl cells [25]: 0.005 µg/mL
- IC80, titer in TZM.bl cells [25]: 0.014 µg/mL
- IC50, titer in TZM.bl cells [26]: 0.04 µg/mL
- IC80, titer in TZM.bl cells [26]: 0.173 µg/mL

— patent US20230002480A1
